Data from patent publication US7951572B2, “Construction of gold nanoparticle-based peptide chip, and assaying enzyme activity and inhibitor effect using secondary ion mass spectrometric analysis thereof” (Korea Advanced Institute of Science and Technology, priority 2006, dated 2011).

Columns and labels:
[1] = test system: T1, Ac-IYAAPKKGGGGC (SEQ ID NO: 8)
T1 sequence: IYAAPKKGGGGC

[2] = test system: T2, Ac-LRRASLGGGGC (SEQ ID NO: 9)
T2 sequence: LRRASLGGGGC

[3] = biological target: PKA kinase (Homo sapiens, UniProt P17612); assay: Quantitative analysis of inhibitory reaction against kinase on gold nanoparticle-peptide chip by secondary ion mass spectrometry; type: biochemical; conditions: ATP 10 μM, kinase 1 U, 30° C. for 2 hours, non-linear regression
Method: As one example for analyzing an inhibitory reaction against kinase activity, the effect of 4-cyano-3-methylisoquinoline (CMIQ, Sigma), an inhibitor against PKA kinase, was illustrated.
After silicon rubber having circular holes (3 mm diameter and 1 mm height) was attached to the surface of a slide glass (75×25 mm) consisting of a glass substrate, a gold nanoparticle-peptide chip was constructed in each of the holes according to the method of Examples 1-(3).
CMIQ was dissolved in a minimum amount of distilled water to prepare solutions having varying CMIP concentrations of 0.1 nM, 0.5 nM, 1 nM, 5 nM, 10 nM, 50 nM, 100 nM, 500 nM, 1 μM and 5 μM, and each of the solutions was mixed with kinase, was introduced into the gold nanoparticle-peptide chip formed in the holes and was allowed to react at 30° C. for 2 hours. In this reaction, the concentration of ATP was 10 μM, and the concentration of kinase used was 1 U. Since the amount of the peptide attached to the surface would generally be constant, the ATP and kinase concentrations were determined as concentrations at which the maximum enzyme reaction occurred.
The choice of the peaks before and after phosphorylation is not limited thereto, and peaks changed by phosphorylation as shown in FIG. 2 may all be applied. […]
More specifically, the values of Ap1 and Ap2 in the two reference samples, that is, the gold nanoparticle-peptide chip before treatment with kinase and the gold nanoparticle-peptide chip after phosphorylation, would be different depending on the intensity of ions. Thus, to correct this difference, percent phosphorylation was calculated according to the following equation 1: […]
In order to calculate percent inhibition, substitution from the percent phosphorylation value calculated in the equation 1 is made. […] More specifically, after the phosphorylation level at each concentration of the inhibitor is calculated, percent inhibition can be calculated according to the following equation 2: […]

| Compound | SIMS chemical imaging of the phosphorylated peptide ion on microarray spots [1] | change of the peptide mass peak (SIMS) on a chip carrying both peptides [1] | SIMS chemical imaging of the phosphorylated peptide ion on microarray spots (50 nM PKA, 100 uM ATP) [2] | change of the peptide mass peak (SIMS) on a chip carrying both peptides [2] | SIMS chemical imaging of the phosphorylated peptide ion on microarray spots (2 nM Abl, 100 uM ATP) [1] | phosphorylation of the chip-bound peptide, seen as a mass change in secondary ion mass spectrometry [1] | SIMS chemical imaging of the phosphorylated peptide ion on microarray spots [2] | n (exponent of equation 3) [3] | IC50 ([3]; equation 3) [nM] | Imax (percent inhibition at which the maximum inhibitory effect of the inhibitor occurs) ([3]; equation 3) [%] |
| --- | --- | --- | --- | --- | --- | --- | --- | --- | --- | --- |
| PKA kinase | No cross-images of kinases against opposite peptides were observed | the AbI kinase and the PKA kinase did not influence the mass peaks of other peptides | kinase-treated spots (line 1 and 2) yielded strong ion mass images (i.e. [PAblH-SH-COOH+HPO3]+ or [PPKAH-SH-COOH+HPO3]+) | only the mass signals of peptides specific for the kinases were changed | – | – | – | – | – | – |
| Abl kinase (Calbiochem) | – | only the mass signals of peptides specific for the kinases were changed | – | the AbI kinase and the PKA kinase did not influence the mass peaks of other peptides | kinase-treated spots (line 1 and 2) yielded strong ion mass images (i.e. [PAblH-SH-COOH+HPO3]+ or [PPKAH-SH-COOH+HPO3]+) | the phosphorylation of the peptide occurred | No cross-images of kinases against opposite peptides were observed | – | – | – |
| Cc1ncc2ccccc2c1C#N [CMIQ, 4-cyano-3-methylisoquinoline] | – | – | – | – | – | – | – | 0.9996 | ~87 | 100 |
